The assay addresses NiV F clamp (Nipah virus (Malaysia strain)) (UniProt Q9IH63). Kind of assay: SEC.

With “NiV F clamp (from UniProt Q9IH63 27-483)”, the stoichiometry N was found to be 3.
